Source: patent publication US20230322927A1

Key:
[1] = molecular target: cynomolgus CD28 on cynomolgus T cells (cynomolgus) (UniProt Q0PDN3); assay: flow cytometry on cynomolgus CD2+/CD4+ T cells, Alexa647 read-out
[2] = molecular target: cynomolgus CD28 on cynomolgus T cells (cynomolgus) (UniProt Q0PDN3); assay: flow cytometry on cynomolgus CD2+/CD8+ T cells, Alexa647 read-out
[3] = molecular target: human CD28 on cells (human) (UniProt P10747); assay: flow cytometry on human CD2+/CD8+ T cells, Alexa647 read-out
[4] = molecular target: human CD28 on cells (human) (UniProt P10747); assay: flow cytometry on human CD2+/CD4+ T cells, Alexa647 read-out

Measured: EC50 (read off the curve)

REGN5705 (antibody)
0.05 nM: all assays above
